The results in this text go back to US20240294647A1.

For orientation: Kd means the concentration at which binding is half-saturated. Lower therefore signals a tighter complex. In general, koff refers to the first-order rate constant of dissociation. Lower therefore signals slow dissociation. What is called kon is the rate constant with which the complex forms.

The target of assay [1] is human CD16A-158V ECD fused to monomeric Fc (human) (UniProt P08637). Nature of the assay: SPR (Biacore T200), receptor captured, 1:1 model.
Sequence of human CD16A-158V ECD fused to monomeric Fc (human) (P08637 17-208 F176V): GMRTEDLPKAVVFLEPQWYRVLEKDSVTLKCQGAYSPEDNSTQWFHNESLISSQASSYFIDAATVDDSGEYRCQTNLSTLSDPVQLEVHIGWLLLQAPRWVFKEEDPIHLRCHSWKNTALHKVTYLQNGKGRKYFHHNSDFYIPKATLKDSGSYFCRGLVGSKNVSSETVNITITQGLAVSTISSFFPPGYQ
The target in assay [2] is human CD16A-158F ECD fused to monomeric Fc (human) (UniProt P08637). Nature of the assay: SPR (Biacore T200), receptor captured, 1:1 model. On the technique in general: SPR reads the build-up and loss of mass on a sensor chip optically.
Sequence of human CD16A-158F ECD fused to monomeric Fc (human) (P08637 17-208): as the sequence (P08637 17-208 F176V) above, with V160F counted along it

In assay [1], “human IgG1 Fc (enhanced, S239D/I332E) (antibody)” returned a Kd of 0.0135 µM, a koff of 0.00639 s⁻¹ and a kon of 474000 M⁻¹ s⁻¹.
In assay [2], “human IgG1 Fc (silenced, L234F/L235E/D265A) (antibody)” returned a Kd of 34.7 µM, a koff of 0.71 s⁻¹ and an on-rate (kon) of 20400 M⁻¹ s⁻¹.
In assay [2], human IgG1 Fc (wildtype) (antibody) showed a Kd of 2.72 µM, a koff of 0.0675 s⁻¹ and a kon of 24800 M⁻¹ s⁻¹. In assay [1], the Kd is 0.424 µM, the koff is 0.00995 s⁻¹ and the kon was found to be 23500 M⁻¹ s⁻¹.
